Reference: patent publication US20050226881A1 (LUDWIG INSTITUTE FOR CANCER RESEARCH, published 2005)

Biological target: HLA-Cw*0701 (human)
Test: cell-based or functional assay

percent lysis (51Cr release) of autologous EBV-B cells loaded with 1 nM peptide, effector/target ratio 5:1: ~34%
Binder: EGDCAPEEK [peptide (D), EGDCAPEEK (amino acids 2-10 of SEQ ID NO: 2)]
